{
  "source": "paper PMC11169713",
  "about": "(2024)",
  "binders": {"B1": {"name": "28H6E11 Fab (anti-idiotype antibody) (Fab, V domains shown)", "VH": "QVQLQQSGPEVVRPGVSVKISCKGSGYTFTDHAMHWVKQSHAKSLEWIGVFNTYNGDTNYNQKFEDKATMTIDKSSSTAYLELARLTSEDSAIYYCVRLGLLGFYALDYWGQGTSVTVSS", "VL": "DVLMTQTPLSLPVSLGDQASISCRSSQSIVHSNGNTYLEWYLQKPGQSPKLLIYKVSNRFSGVPDRFSGSGSGTDFTLKISRVEAEDLGVYYCFQGSHVPLTFGAGTKLELK"}},
  "experiment_in_all_cases": "SPR",
  "key": {"MEDI8852 mature": {"molecular_target": "MEDI8852 mature"}, "56.a.09 mature": {"molecular_target": "56.a.09 mature"}, "MEDI8852 UCA": {"molecular_target": "MEDI8852 UCA"}, "56.a.09 UCA": {"molecular_target": "56.a.09 UCA"}},
  "data": [
    {"binder": "B1", "values": [
      {"measurement": "Kd", "setting": "MEDI8852 mature", "result": 941, "unit": "nM"},
      {"measurement": "Kd", "setting": "56.a.09 mature", "result": 496, "unit": "nM"},
      {"measurement": "Kd", "setting": "MEDI8852 UCA", "result": 0.943, "unit": "nM"},
      {"measurement": "Kd", "setting": "56.a.09 UCA", "result": 32500, "unit": "nM"}
    ]}
  ]
}
